Measurements taken from publication PMC9482650, “Quantitative fragmentomics allow affinity mapping of interactomes” (Nature Communications, 2022).

Test system: HEK293T cells
Assay: Label-free MS proteome of stable cell lines expressing HPV16 E6 or E6ΔPBM
Type: cell-based, human
Details: protein level; for Difference log2 E6/Ctrl / Ratio E6/Ctrl: E6 cell line vs control; for Difference log2 dPBM/E6 / Ratio dPBM/E6: dPBM cell line vs E6 cell line; for Difference log2 dPBM/Ctrl / Ratio dPBM/Ctrl: dPBM cell line vs control
Protocol: HEK293T and HeLa cells were authenticated and found 100% identity to ATCC cat. CRL-3216 and ATCC cat. CCL-2, respectively. Jurkat and HaCat cell lines were not authenticated (original source: ECACC and Deutsches Krebsforschungszentrum DKFZ, respectively). HeLa cells were grown in DMEM (1 g/L glucose, Gibco) medium completed with 5% FCS and 40 μg/mL gentamicin, diluted every 3rd/4th day 1/10. HaCat cells were grown in DMEM (1 g/L glucose, Gibco) medium completed with 10% FCS and 40 μg/mL gentamicin, diluted every 3rd/4th day 1/4. Jurkat cells were grown in RPMI (Gibco) medium completed with 10% FCS and 40 μg/mL gentamicin, diluted every 3rd/4th day 1/12. All cells were kept at 37 °C and 5% CO2. For proteomics analyses cells were seeded on T-175 flasks. After they reached confluency, adherent cells were washed with PBS once and collected by scraping with ice-cold lysis buffer (Hepes-KOH pH 7.5 50 mM, NaCl 150 mM, Triton X-100 1%, complete EDTA-free protease inhibitor cocktail 1×, EDTA 2 mM, TCEP 5 mM, glycerol 10%). Jurkat cells were collected by 1000 g × centrifugation, washed once with PBS, then collected by 1000 g × 5 min centrifugation again and lysed in ice-cold lysis buffer. Lysates were sonicated 4 × 20 s with 1 s long pulses on ice, then incubated rotating at 4 °C for 30 min. Lysates were centrifuged at 12,000 rpm 4 °C for 20 min and supernatant was kept for further analysis. Concentration determination was carried out by standard Bradford method (Bio-Rad Protein Assay Dye Reagent #5000006) using BSA (MP BIomedicals #160069) as control on a Bio-Rad SmartSpec 3000 spectrophotometer instrument.
The samples were precipitated with TCA 20% overnight at 4 °C and centrifuged at 14,000 rpm for 10 min at 4 °C. The protein pellets were washed twice with 1 mL cold acetone and air dried. The protein extracts were solubilized in urea 8 M, reduced with 5 mM TCEP for 30 min, and alkylated with 10 mM iodoacetamide for 30 min in the dark. Double digestion was performed at 37 °C with 500 ng endoproteinase Lys-C for 4 h, followed by fourfold dilution and an overnight digestion with 500 ng trypsin. Peptide mixtures were then desalted on C18 spin-column and dried on Speed-Vacuum.
Samples were analyzed using an Ultimate 3000 nano-RSLC (Thermo Scientific, San Jose California) coupled in line with a LTQ-Orbitrap ELITE mass spectrometer via a nano-electrospray ionization source (Thermo Scientific, San Jose California). Peptide mixtures were injected in 0.1% TFA on a C18 Acclaim PepMap100 trap-column (75 µm ID × 2 cm, 3 µm, 100 Å, Thermo Fisher Scientific) for 3 min at 5 µL/min with 2% ACN, 0.1% FA in H2O and then separated on a C18 Accucore nano-column (75 µm ID × 50 cm, 2.6 µm, 150 Å, Thermo Fisher Scientific) at 220 nl/min and 38 °C with a 90 min linear gradient from 5% to 30% buffer B (A: 0.1% FA in H2O/B: 99% ACN, 0.1% FA in H2O), regeneration at 5% B. The mass spectrometer was operated in positive ionization mode, in data-dependent mode with survey scans from m/z 350–1500 acquired in the Orbitrap at a resolution of 120,000 at m/z 400. The 20 most intense peaks from survey scans were selected for further fragmentation in the Linear Ion Trap with an isolation window of 2.0 Da and were fragmented by CID with normalized collision energy of 35%. (TOP20CID method) Unassigned and single charged states were excluded from fragmentation. The Ion Target Value for the survey scans (in the Orbitrap) and the MS2 mode (in the Linear Ion Trap) were set to 1E6 and 5E3 respectively and the maximum injection time was set to 100 ms for both scan modes. Dynamic exclusion was set to 20 s after one repeat count with mass width at ±10 ppm.
Proteins were identified by database searching using SequestHT (Thermo Fisher Scientific) with Proteome Discoverer 2.4 software (PD2.4, Thermo Fisher Scientific) on human FASTA database downloaded from SwissProt (reviewed, release 2020_11_27, 20304 entries, https://www.uniprot.org/). […]

Row | Molecule | Difference log2 E6/Ctrl | Ratio E6/Ctrl | Difference log2 dPBM/E6 | Ratio dPBM/E6 | Difference log2 dPBM/Ctrl | Ratio dPBM/Ctrl
1 | UBA6 (protein, UniProt A0AVT1 1-1052, looked up) Ubiquitin-like …: MEGSEPVAAHQGEEASCSSWGTGSTNKNLPIMSTASVEIDDALYSRQRYVLGDTAMQKMAKSHVFLSGMGGLGLEIAKNLVLAGIKAVTIHDTEKCQAWDLGTNFFLSEDDVVNKRNRAEAVLKHIAELNPYVHVTSSSVPFNETTDLSFLDKYQCVVLTEMKLPLQKKINDFCRSQCPPIKFISADVHGIWSRLFCDFGDEFEVLDTTGEEPKEIFISNITQANPGIVTCLENHPHKLETGQFLTFREINGMTGLNGSIQQITVISPFSFSIGDTTELEPYLHGGIAVQVKTPKTVFFESLERQLKHPKCLIVDFSNPEAPLEIHTAMLALDQFQEKYSRKPNVGCQQDSEELLKLATSISETLEEKPDVNADIVHWLSWTAQGFLSPLAAAVGGVASQEVLKAVTGKFSPLCQWLYLEAADIVESLGKPECEEFLPRGDRYDALRACIGDTLCQKLQNLNIFLVGCGAIGCEMLKNFALLGVGTSKEKGMITVTDPDLIEKSNLNRQFLFRPHHIQKPKSYTAADATLKINSQIKIDAHLNKVCPTTETIYNDEFYTKQDVIITALDNVEARRYVDSRCLANLRPLLDSGTMGTKGHTEVIVPHLTESYNSHRDPPEEEIPFCTLKSFPAAIEHTIQWARDKFESSFSHKPSLFNKFWQTYSSAEEVLQKIQSGHSLEGCFQVIKLLSRRPRNWSQCVELARLKFEKYFNHKALQLLHCFPLDIRLKDGSLFWQSPKRPPSPIKFDLNEPLHLSFLQNAAKLYATVYCIPFAEEDLSADALLNILSEVKIQEFKPSNKVVQTDETARKPDHVPISSEDERNAIFQLEKAILSNEATKSDLQMAVLSFEKDDDHNGHIDFITAASNLRAKMYSIEPADRFKTKRIAGKIIPAIATTTATVSGLVALEMIKVTGGYPFEAYKNCFLNLAIPIVVFTETTEVRKTKIRNGISFTIWDRWTVHGKEDFTLLDFINAVKEKYGIEPTMVVQGVKMLYVPVMPGHAKRLKLTMHKLVKPTTEKKYVDLTVSFAPDIDGDEDLPGPPVRYYFSHDTD | -0.8956 | 0.5375 | 0.6111 | 1.527 | -0.2845 | 0.821
2 | ZW10 (protein, UniProt O43264 2-779, looked up) Centromere/kinetochore …: ASFVTEVLAHSGRLEKEDLGTRISRLTRRVEEIKGEVCNMISKKYSEFLPSMQSAQGLITQVDKLSEDIDLLKSRIESEVRRDLHVSTGEFTDLKQQLERDSVVLSLLKQLQEFSTAIEEYNCALTEKKYVTGAQRLEEAQKCLKLLKSRKCFDLKILKSLSMELTIQKQNILYHLGEEWQKLIVWKFPPSKDTSSLESYLQTELHLYTEQSHKEEKTPMPPISSVLLAFSVLGELHSKLKSFGQMLLKYILRPLASCPSLHAVIESQPNIVIIRFESIMTNLEYPSPSEVFTKIRLVLEVLQKQLLDLPLDTDLENEKTSTVPLAEMLGDMIWEDLSECLIKNCLVYSIPTNSSKLQQYEEIIQSTEEFENALKEMRFLKGDTTDLLKYARNINSHFANKKCQDVIVAARNLMTSEIHNTVKIIPDSKINVPELPTPDEDNKLEVQKVSNTQYHEVMNLEPENTLDQHSFSLPTCRISESVKKLMELAYQTLLEATTSSDQCAVQLFYSVRNIFHLFHDVVPTYHKENLQKLPQLAAIHHNNCMYIAHHLLTLGHQFRLRLAPILCDGTATFVDLVPGFRRLGTECFLAQMRAQKGELLERLSSARNFSNMDDEENYSAASKAVRQVLHQLKRLGIVWQDVLPVNIYCKAMGTLLNTAISEVIGKITALEDISTEDGDRLYSLCKTVMDEGPQVFAPLSEESKNKKYQEEVPVYVPKWMPFKELMMMLQASLQEIGDRWADGKGPLAAAFSSSEVKALIRALFQNTERRAAALAKIK | 1.251 | 2.38 | -3.211 | 0.108 | -1.96 | 0.2569
